The values below come from US20250011363A1, “OPTIMIZED SHORTENED PEPTIDE THAT BINDS TO ACETYLCHOLINE RECEPTOR, AND USE THEREOF” (SKINMED CO., LTD., priority 2021, published 2025).

Test [1] addresses acetylcholine receptor. In words: SPR, acetylcholine receptor on CM5 chip, peptide 10 µM.
The target in test [2] is acetylcholine receptor. In words: SPR, AchR on CM5 chip, peptide 10 µM. Background: In SPR one partner is held on a chip, and binding of the other changes the refractive index at the surface.

B1: 6mer-2-539 (peptide)
peptide: KWYTKK
Turning to B1, in the test with acetylcholine receptor [1], the Binding affinity (RU) amounted to 127 RU.

B2: 6mer-1-1182 (peptide)
peptide: KKTCHR
Molecule B2 gave a Binding affinity (RU) in the test with acetylcholine receptor [2] of 35 RU.

B3: 6mer-1-1162 (peptide)
peptide: KKCDHR
B3 yielded a Binding affinity (RU) in the test with acetylcholine receptor [2] of 41 RU.

B4: 6mer-1-1193 (peptide)
peptide: KKPTNK
In the case of B4, the Binding affinity (RU) with acetylcholine receptor [2] was 33 RU.

B5: 6mer-1-1177 (peptide)
peptide: RRHTMR
In the case of B5, the Binding affinity (RU) with acetylcholine receptor [2] was 21 RU.

B6: 6mer-2-569 (peptide)
peptide: RWQLRK
Turning to B6, the Binding affinity (RU) with acetylcholine receptor [1] worked out at 135 RU.

B7: 6mer-2-541 (peptide)
peptide: KGQCRK
On to B7, for which the Binding affinity (RU) with acetylcholine receptor [1] was determined as 126 RU.

B8: 6mer-1-1170 (peptide)
peptide: KKYNPK
In turn, B8 yielded a Binding affinity (RU) with acetylcholine receptor [2] of 25 RU.

B9: 6mer-1-1171 (peptide)
peptide: RKIAFK
Take B9: the Binding affinity (RU) with acetylcholine receptor [2] is 40 RU.

B10: 6mer-2-545 (peptide)
peptide: KLYCRK
Regarding B10, the Binding affinity (RU) with acetylcholine receptor [1] was 125 RU.

B11: 6mer-2-562 (peptide)
peptide: RQQRKR
Molecule B11 displayed a Binding affinity (RU) with acetylcholine receptor [1] of 136 RU.

B12: 6mer-2-559 (peptide)
peptide: KGQLRR
B12 returned a Binding affinity (RU) with acetylcholine receptor [1] of 121 RU.

B13: 6mer-1-1196 (peptide)
peptide: KKTTGR
B13 registered a Binding affinity (RU) in the test with acetylcholine receptor [2] of 25 RU.

B14: 6mer-2-568 (peptide)
peptide: KGFQKK
In the test with acetylcholine receptor [1], B14 displayed a Binding affinity (RU) of 142 RU.

B15: 6mer-2-563 (peptide)
peptide: KGYQKR
In the test with acetylcholine receptor [1], B15 displayed a Binding affinity (RU) of 131 RU.

B16: 6mer-1-1191 (peptide)
peptide: RKYTKK
B16 had a Binding affinity (RU) in the test with acetylcholine receptor [2] of 39 RU.

B17: 6mer-2-542 (peptide)
peptide: RQIYRR
Molecule B17 displayed a Binding affinity (RU) with acetylcholine receptor [1] of 148 RU.

B18: 6mer-2-566 (peptide)
peptide: KRLSKK
For the molecule B18, the Binding affinity (RU) in the test with acetylcholine receptor [1] came to 139 RU.

B19: 6mer-1-1180 (peptide)
peptide: KRPPPK
In the test with acetylcholine receptor [2], B19 registered a Binding affinity (RU) of 34 RU.

B20: 6mer-1-1183 (peptide)
peptide: RKIHNK
Turning to B20, in the test with acetylcholine receptor [2], the Binding affinity (RU) turned out to be 35 RU.

B21: 6mer-2-553 (peptide)
peptide: RSLQKK
In the test with acetylcholine receptor [1], B21 displayed a Binding affinity (RU) of 124 RU.

B22: 6mer-2-536 (peptide)
peptide: RWQRKK
As for B22, the Binding affinity (RU) with acetylcholine receptor [1] is 125 RU.

B23: 6mer-1-1176 (peptide)
peptide: KKADHK
In the test with acetylcholine receptor [2], B23 registered a Binding affinity (RU) of 21 RU.

B24: 6mer-2-546 (peptide)
peptide: RVFTKK
In the test with acetylcholine receptor [1], B24 showed a Binding affinity (RU) of 127 RU.

B25: 6mer-2-554 (peptide)
peptide: RWRCRR
For B25, the Binding affinity (RU) with acetylcholine receptor [1] is 121 RU.

B26: 6mer-2-567 (peptide)
peptide: KLYYRK
In the test with acetylcholine receptor [1], B26 displayed a Binding affinity (RU) of 146 RU.

B27: 6mer-2-537 (peptide)
peptide: KVLCKR
B27: the Binding affinity (RU) in the test with acetylcholine receptor [1] was 153 RU.

B28: 6mer-1-1197 (peptide)
peptide: KRPMAK
In the case of B28, the Binding affinity (RU) with acetylcholine receptor [2] is 21 RU.

B29: 6mer-1-1179 (peptide)
peptide: KRMTPR
In the test with acetylcholine receptor [2], B29 gave a Binding affinity (RU) of 40 RU.

B30: 6mer-1-1169 (peptide)
peptide: RKMDIR
B30 gave a Binding affinity (RU) with acetylcholine receptor [2] of 32 RU.

B31: 6mer-1-1175 (peptide)
peptide: RKTWEK
The molecule B31 gave a Binding affinity (RU) with acetylcholine receptor [2] of 23 RU.

B32: 6mer-2-558 (peptide)
peptide: KSVCKK
As to B32, the Binding affinity (RU) with acetylcholine receptor [1] worked out at 154 RU.

B33: 6mer-2-543 (peptide)
peptide: RRQYRR
In turn, B33 registered a Binding affinity (RU) in the test with acetylcholine receptor [1] of 144 RU.

B34: 6mer-1-1164 (peptide)
peptide: KKHHAK
With B34, the Binding affinity (RU) with acetylcholine receptor [2] amounted to 41 RU.

B35: 6mer-2-540 (peptide)
peptide: KRLTRR
In the test with acetylcholine receptor [1], B35 yielded a Binding affinity (RU) of 142 RU.

B36: 6mer-1-1178 (peptide)
peptide: RKKMAK
In the case of B36, the Binding affinity (RU) with acetylcholine receptor [2] was 29 RU.

B37: 6mer-2-550 (peptide)
peptide: RSFTKK
B37 had a Binding affinity (RU) with acetylcholine receptor [1] of 148 RU.

B38: 6mer-1-1167 (peptide)
peptide: KRHMMK
With B38, the Binding affinity (RU) with acetylcholine receptor [2] was 42 RU.

B39: 6mer-2-561 (peptide)
peptide: RRVLKK
In turn, B39 showed a Binding affinity (RU) with acetylcholine receptor [1] of 142 RU.

B40: 6mer-1-1173 (peptide)
peptide: KKIPMK
Consider B40, for which the Binding affinity (RU) with acetylcholine receptor [2] stood at 26 RU.

B41: 6mer-1-1188 (peptide)
peptide: RRMNER
The molecule B41 had a Binding affinity (RU) with acetylcholine receptor [2] of 41 RU.

B42: 6mer-2-556 (peptide)
peptide: RSICKK
As to B42, the Binding affinity (RU) with acetylcholine receptor [1] is 148 RU.

B43: 6mer-2-564 (peptide)
peptide: KQVYRK
Turning to B43, the Binding affinity (RU) in the test with acetylcholine receptor [1] is 148 RU.

B44: 6mer-2-555 (peptide)
peptide: RSVSKK
B44 displayed a Binding affinity (RU) with acetylcholine receptor [1] of 154 RU.

B45: 6mer-1-1174 (peptide)
peptide: RKDAIR
B45: the Binding affinity (RU) with acetylcholine receptor [2] is 30 RU.

B46: 6mer-2-552 (peptide)
peptide: RGLLRR
In turn, B46 returned a Binding affinity (RU) with acetylcholine receptor [1] of 148 RU.

B47: 6mer-1-1194 (peptide)
peptide: KKTHAK
Molecule B47 came in with a Binding affinity (RU) with acetylcholine receptor [2] of 22 RU.

B48: 6mer-1-1190 (peptide)
peptide: KKCMKR
For B48, in the test with acetylcholine receptor [2], the Binding affinity (RU) came to 29 RU.

B49: 6mer-1-1195 (peptide)
peptide: KRDEDK
The molecule B49 came in with a Binding affinity (RU) with acetylcholine receptor [2] of 25 RU.

B50: 6mer-2-535 (peptide)
peptide: KLFCRR
In the case of B50, in the test with acetylcholine receptor [1], the Binding affinity (RU) came to 133 RU.

B51: 6mer-1-1166 (peptide)
peptide: KKEEKR
For the molecule B51, in the test with acetylcholine receptor [2], the Binding affinity (RU) amounted to 22 RU.

B52: 6mer-2-565 (peptide)
peptide: KSRRRR
Molecule B52 yielded a Binding affinity (RU) in the test with acetylcholine receptor [1] of 147 RU.

B53: 6mer-2-560 (peptide)
peptide: RQYTRR
Consider B53, for which the Binding affinity (RU) in the test with acetylcholine receptor [1] was 153 RU.

B54: 6mer-1-1187 (peptide)
peptide: RRHAHK
B54: the Binding affinity (RU) in the test with acetylcholine receptor [2] amounted to 26 RU.

B55: 6mer-1-1163 (peptide)
peptide: RKCAFK
B55 had a Binding affinity (RU) with acetylcholine receptor [2] of 21 RU.

B56: 6mer-1-1165 (peptide)
peptide: RRATWR
Molecule B56 registered a Binding affinity (RU) in the test with acetylcholine receptor [2] of 29 RU.

B57: 6mer-1-1189 (peptide)
peptide: KKCHWR
On to B57, for which the Binding affinity (RU) with acetylcholine receptor [2] amounted to 40 RU.

B58: 6mer-2-557 (peptide)
peptide: KWVLRK
B58: the Binding affinity (RU) in the test with acetylcholine receptor [1] was 123 RU.

B59: 6mer-2-549 (peptide)
peptide: KQLCKK
With B59, the Binding affinity (RU) in the test with acetylcholine receptor [1] was determined as 142 RU.

B60: 6mer-2-548 (peptide)
peptide: RLQCRR
Consider B60, for which, in the test with acetylcholine receptor [1], the Binding affinity (RU) came to 142 RU.

B61: 6mer-1-1186 (peptide)
peptide: KKNNAK
In turn, B61 gave a Binding affinity (RU) in the test with acetylcholine receptor [2] of 37 RU.

B62: 6mer-1-1181 (peptide)
peptide: RRMDAK
In the test with acetylcholine receptor [2], B62 gave a Binding affinity (RU) of 21 RU.

B63: 6mer-1-1172 (peptide)
peptide: RRFNFR
In turn, B63 came in with a Binding affinity (RU) with acetylcholine receptor [2] of 23 RU.

B64: 6mer-2-544 (peptide)
peptide: KVIQKR
As for B64, in the test with acetylcholine receptor [1], the Binding affinity (RU) came to 147 RU.

B65: 6mer-2-538 (peptide)
peptide: KQFCKK
Molecule B65 displayed a Binding affinity (RU) with acetylcholine receptor [1] of 125 RU.

B66: 6mer-1-1192 (peptide)
peptide: RKDDDR
With B66, the Binding affinity (RU) with acetylcholine receptor [2] stood at 36 RU.

B67: 6mer-1-1168 (peptide)
peptide: KKEKFR
In turn, B67 gave a Binding affinity (RU) with acetylcholine receptor [2] of 40 RU.

B68: 6mer-1-1185 (peptide)
peptide: KKEMMK
The molecule B68 displayed a Binding affinity (RU) with acetylcholine receptor [2] of 29 RU.

B69: 6mer-1-1184 (peptide)
peptide: RRDTVK
In turn, B69 returned a Binding affinity (RU) with acetylcholine receptor [2] of 30 RU.

B70: 6mer-2-551 (peptide)
peptide: KWYTKR
Turning to B70, in the test with acetylcholine receptor [1], the Binding affinity (RU) came to 141 RU.

B71: 6mer-2-547 (peptide)
peptide: RWQCKR
For B71, the Binding affinity (RU) with acetylcholine receptor [1] worked out at 135 RU.
